Assay: In vitro mucolysis of patient sputum
Details: very thick/purulent sputum, patient already on Pulmozyme
Procedure: Patient had very thick/purulent sputum. The sputum from this patient was responsive to 5% cysteamine DPI formulation. Addition of DNAse I (Pulmozyme) at physiological concentration is having no effect, but this patient is already on Pulmozyme and recently had the dose tripled. The patient's sputum responded to in vitro tests with cysteamine (see FIG. 7). The sputum response was conducted in accordance with the general method outlined in EBioMedicine 2 (2015) 1507-1512 “Cysteamine as a Future Intervention in Cystic Fibrosis Against Current and Emerging Pathogens: A Patient-based ex vivo Study Confirming its Antimicrobial and Mucoactive Potential in Sputum”, Graham Devereux et al.

B1: DNAse I (Pulmozyme): DNAse I (Pulmozyme) added at physiological concentration to sputum (protein, UniProt P24855 23-282, looked up)
Deoxyribonuclease-1: LKIAAFNIQTFGETKMSNATLVSYIVQILSRYDIALVQEVRDSHLTAVGKLLDNLNQDAPDTYHYVVSEPLGRNSYKERYLFVYRPDQVSAVDSYYYDDGCEPCGNDTFNREPAIVRFFSRFTEVREFAIVPLHAAPGDAVAEIDALYDVYLDVQEKWGLEDVMLMGDFNAGCSYVRPSQWSSIRLWTSPTFQWLIPDSADTTATPTHCAYDRIVVAGMLLRGAVVPDSALPFNFQAAYGLSDQLAQAISDHYPVEVMLK
Response of patient sputum (mucolysis): no effect
